Results reported in patent US7381540B2, “Composition for measuring glucose having improved substrate specificity” (Toyo Boseki Kabushiki Kaisha, priority 2005, dated 2008).

Assay: Maltose activity of purified PQQGDH by GDH activity measurement (PMS/DCPIP, Test Example 1)
Format: biochemical, Acinetobacter baumannii strain NCIMB11517
Conditions: substrate concentration in the assay mixture 4.8 mM; PIPES-NaOH pH 6.5, 37° C.
Method: D-glucose+PMS+PQQGDH→D-glucono-1,5-lactone+PMS (red)
PMS (red)+DCPIP→PMS+DCPIP (red)
The presence of DCPIP (red) formed by reduction of […] (DCPIP) by phenazine methosulfate (PMS) (red) was measured by spectrophotometry at 600 nm.
• A. D-glucose reagent: 1.0 M (1.8 g D-glucose (molecular weight: 180.16)/10 ml H2O) • B. PIPES-NaOH buffer: pH 6.5, 50 mM (1.51 g of PIPES (molecular weight: 302.36) suspended in 60 ml of water dissolved in 5 N NaOH followed by the addition of 2.2 ml of 10% Triton X-100; adjusted to pH of 6.5±0.5 at 25° C. using 5 N NaOH and brought to a final volume of 100 ml by addition of water) • C. PMS solution: 24 mM (73.52 mg of phenazine methosulfate (molecular weight: […])/10 ml H2O) • D. DCPIP solution: 2.0 mM (6.5 mg of […]/10 ml H2O • E. Enzyme diluent: 50 mM PIPES-NaOH buffer containing 1 mM CaCl2, 0.1% Triton X-100 and 0.1% BSA (pH: 6.5) Procedure:
The following reaction mixture was prepared in a light-protected bottle and stored on ice (prepared at the time of use). • 1. […]
The reduction in the absorbance relative to water at 600 nm was recorded for 4 to 5 minutes with a spectrophotometer while maintaining the temperature of the mixture at 37° C., and the ΔOD per minute was calculated from the initial linear portion of the curve (OD test). […]
Activity was calculated using the following formula. […]

B1: wild type PQQGDH: wild type PQQ dependent glucose dehydrogenase (Toyobo GLD-321) (protein, listed as Acinetobacter baumannii)
chain: DIPLTPAQFAKAKTENFDKKVILSNLNKPHALLWGPDNQIWLTERATGKILRVNPVSGSAKTVFQVPEIVSDADGQNGLLGFAFHPDFKHNPYIYISGTFKNPKSTDKELPNQTIIRRYTYNKTTDTFEKPIDLIAGLPSSKDHQSGRLVIGPDQKIYYTIGDQGRNQLAYLFLPNQAQHTPTQQELNSKDYHTYMGKVLRLNLDGSVPKDNPSFNGVVSHIYTLGHRNPQGLAFAPNGKLLQSEQGPNSDDEINLVLKGGNYGWPNVAGYKDDSGYAYANYSAATNKSQIKDLAQNGIKVATGVPVTKESEWTGKNFVPPLKTLYTVQDTYNYNDPTCGEMAYICWPTVAPSSAYVYTGGKKAIPGWENTLLVPSLKRGVIFRIKLDPTYSTTLDDAIPMFKSNNRYRDVIASPEGNTLYVLTDTAGNVQKDDGSVTHTLENPGSLIKFTYNGK
For B1, the “maltose activity (ratio of the activity value when using maltose to the activity value when using glucose)” value was 110%.
